This note sets out measurements from the supplement of paper PMC9233669.

The subject of one data set is biotinyl-Ile-oxazolone. Put plainly: self-aminoacylation, catalytic enhancement (BIO) (fold over background); higher = more active; k-Seq, kA / k0A0; sequences stand for … in GGGAAUGGAUCCACAUCUACGAAUUC…UUCACUGCAGACUUGACGAAGCUG
In short, it runs like this: (§1)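 Catalytic enhancement equals the median kA over the uncatalyzed rate, the latter read from the low-activity peak of a bimodal Gaussian fit. Values of kA came from fitting each sequence's fraction reacted to a pseudo-first-order model, with 1000 bootstraps. Reacted RNA was captured with streptavidin and quantified by triplicate qPCR and Illumina sequencing after 90 minutes at room temperature with 2–1250 μM biotinyl-aminoacyl-oxazolone and 0.43 μM mutagenized RNA pools bearing a 21-nt variable region.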

The test system of the next data set is biotinyl-Trp-oxazolone. Put plainly: self-aminoacylation, catalytic enhancement (BWO) (fold over background); higher = more active; k-Seq, kA / k0A0; sequences stand for … in GGGAAUGGAUCCACAUCUACGAAUUC…UUCACUGCAGACUUGACGAAGCUG
The procedure, abridged: as §1

The test system of another data set is biotinyl-Leu-oxazolone. Kind of data set: self-aminoacylation, catalytic enhancement (BLO) (fold over background); higher = more active; k-Seq, kA / k0A0; sequences stand for … in GGGAAUGGAUCCACAUCUACGAAUUC…UUCACUGCAGACUUGACGAAGCUG
The procedure, abridged: as §1

The next data set deals with biotinyl-Phe-oxazolone. Kind of data set: self-aminoacylation, catalytic enhancement (BFO) (fold over background); higher = more active; k-Seq, kA / k0A0; sequences stand for … in GGGAAUGGAUCCACAUCUACGAAUUC…UUCACUGCAGACUUGACGAAGCUG
The procedure, abridged:
as §1

Another data set has as its system biotinyl-Val-oxazolone. Kind of data set: self-aminoacylation, catalytic enhancement (BVO) (fold over background); higher = more active; k-Seq, kA / k0A0; sequences stand for … in GGGAAUGGAUCCACAUCUACGAAUUC…UUCACUGCAGACUUGACGAAGCUG
In short, it runs like this: as §1

The next data set relates to biotinyl-Met-oxazolone. Kind of data set: self-aminoacylation, catalytic enhancement (BMO) (fold over background); higher = more active; k-Seq, kA / k0A0; sequences stand for … in GGGAAUGGAUCCACAUCUACGAAUUC…UUCACUGCAGACUUGACGAAGCUG
The procedure, abridged: as §1

Variants at the floor of the assay were thinned out.

Consider “AUCACCCUGGUCAUCUAGUGA [Fam2.1 aminoacylation ribozyme variant]”, for which the self-aminoacylation in the data set with biotinyl-Ile-oxazolone amounted to 5.3; with biotinyl-Trp-oxazolone, 12.9; with biotinyl-Leu-oxazolone, 11.7; in the data set with biotinyl-Phe-oxazolone it was 85; in the data set with biotinyl-Val-oxazolone, 5.63; in the data set with biotinyl-Met-oxazolone it was 12.8.

On to “GAGAUUGCUAAUAGUCGCAAG [Fam3.1 aminoacylation ribozyme variant]”, for which the self-aminoacylation came out at 1.88 with biotinyl-Ile-oxazolone; 2.94 with biotinyl-Trp-oxazolone; 1.52 in the data set on biotinyl-Leu-oxazolone; 1.8 in the data set with biotinyl-Phe-oxazolone; 1.98 in the data set with biotinyl-Val-oxazolone; 1.67 in the data set on biotinyl-Met-oxazolone.

For “AUUACCCUGGUCAUCGAGUUU [Fam2.1 aminoacylation ribozyme variant]”, the self-aminoacylation was determined as 3.52 with biotinyl-Ile-oxazolone; 6.31 in the data set with biotinyl-Trp-oxazolone; 7.87 in the data set on biotinyl-Leu-oxazolone; 14.8 with biotinyl-Phe-oxazolone; 4.61 in the data set on biotinyl-Val-oxazolone; 7.8 with biotinyl-Met-oxazolone.

In the case of “AUUCACCUAGGUCAUCGCGGG [Fam2.2 aminoacylation ribozyme variant]”, the self-aminoacylation is 2.97 with biotinyl-Ile-oxazolone; 2.25 in the data set on biotinyl-Trp-oxazolone; 4.05 with biotinyl-Leu-oxazolone; 10.7 in the data set with biotinyl-Phe-oxazolone; 2.47 with biotinyl-Val-oxazolone; 3.25 with biotinyl-Met-oxazolone.

“AUUCACCUAGGUAAUUGGGUG [Fam2.2 aminoacylation ribozyme variant]”: the self-aminoacylation in the data set on biotinyl-Ile-oxazolone worked out at 2.94; in the data set with biotinyl-Trp-oxazolone it was 4.01; with biotinyl-Leu-oxazolone it was 6.35; in the data set on biotinyl-Phe-oxazolone it was 32.1; with biotinyl-Val-oxazolone, 2.63; with biotinyl-Met-oxazolone it was 4.54.

Regarding “AAGUCUGCUAAUAGACGCAAG [Fam3.1 aminoacylation ribozyme variant]”, the self-aminoacylation in the data set on biotinyl-Ile-oxazolone turned out to be 0.692; with biotinyl-Trp-oxazolone it was 0.653; in the data set with biotinyl-Leu-oxazolone, 0.771; with biotinyl-Phe-oxazolone it was 1.01; in the data set with biotinyl-Val-oxazolone, 0.715; in the data set with biotinyl-Met-oxazolone it was 0.669.

As to “CCACUUCAAACAAUCGGGCUG [Fam1A.1 aminoacylation ribozyme variant]”, the self-aminoacylation in the data set on biotinyl-Ile-oxazolone was 2.12; with biotinyl-Trp-oxazolone, 27.2; in the data set with biotinyl-Leu-oxazolone, 2.63; in the data set with biotinyl-Phe-oxazolone, 27.3; in the data set on biotinyl-Val-oxazolone, 3.05; in the data set on biotinyl-Met-oxazolone, 2.13.

For the sequence “CCACAUUUCUAGCAAUCGGUC [Fam1B.1 aminoacylation ribozyme variant]”, the self-aminoacylation was found to be 1.83 in the data set with biotinyl-Ile-oxazolone; 1.22 in the data set with biotinyl-Trp-oxazolone; 1.4 in the data set on biotinyl-Leu-oxazolone; 1.49 with biotinyl-Phe-oxazolone; 1.76 with biotinyl-Val-oxazolone; 1.35 with biotinyl-Met-oxazolone.

Turning to “UUUACCCGGGUCAUCGAGUGA [Fam2.1 aminoacylation ribozyme variant]”, the self-aminoacylation is 3.4 in the data set with biotinyl-Ile-oxazolone; 9.17 with biotinyl-Trp-oxazolone; 7.17 with biotinyl-Leu-oxazolone; 43.1 in the data set on biotinyl-Phe-oxazolone; 4.02 in the data set with biotinyl-Val-oxazolone; 7.15 in the data set on biotinyl-Met-oxazolone.

In the case of “AUUACACUGGUCAUCGGGUGA [Fam2.1 aminoacylation ribozyme variant]”, the self-aminoacylation with biotinyl-Ile-oxazolone is 5.02; with biotinyl-Trp-oxazolone, 9.23; with biotinyl-Leu-oxazolone it was 9.65; in the data set with biotinyl-Phe-oxazolone, 59.4; with biotinyl-Val-oxazolone, 5.51; in the data set on biotinyl-Met-oxazolone it was 9.88.

In the case of “AUUACCGUGGUCAACGAGUGA [Fam2.1 aminoacylation ribozyme variant]”, the self-aminoacylation with biotinyl-Ile-oxazolone was found to be 3.61; in the data set with biotinyl-Trp-oxazolone, 9.2; in the data set on biotinyl-Leu-oxazolone, 7.25; in the data set on biotinyl-Phe-oxazolone it was 36.7; in the data set with biotinyl-Val-oxazolone, 4.21; with biotinyl-Met-oxazolone, 6.41.

As to “AUAACCCUGGUCAUCGAGUCA [Fam2.1 aminoacylation ribozyme variant]”, the self-aminoacylation in the data set on biotinyl-Ile-oxazolone is 0.774; with biotinyl-Trp-oxazolone, 0.624; in the data set on biotinyl-Leu-oxazolone, 0.781; with biotinyl-Phe-oxazolone, 0.721; in the data set with biotinyl-Val-oxazolone it was 0.806; in the data set with biotinyl-Met-oxazolone, 0.958.

With “CUACUUCAAGCAAUCGGUAUG [Fam1A.1 aminoacylation ribozyme variant]”, the self-aminoacylation in the data set with biotinyl-Ile-oxazolone was determined as 0.94; in the data set on biotinyl-Trp-oxazolone, 4.52; in the data set on biotinyl-Leu-oxazolone it was 1.02; with biotinyl-Phe-oxazolone it was 8.16; in the data set on biotinyl-Val-oxazolone, 0.963; in the data set on biotinyl-Met-oxazolone, 1.07.

Consider “CCACACUUCUAGCAAUCGGUC [Fam1B.1 aminoacylation ribozyme variant]”, for which the self-aminoacylation with biotinyl-Ile-oxazolone was 0.771; in the data set with biotinyl-Trp-oxazolone it was 0.616; in the data set on biotinyl-Leu-oxazolone, 0.624; in the data set with biotinyl-Phe-oxazolone, 0.957; in the data set on biotinyl-Val-oxazolone it was 0.852; with biotinyl-Met-oxazolone, 0.611.

Consider “AUUGCCCUAGGUCAUCGGGUG [Fam2.2 aminoacylation ribozyme variant]”, for which the self-aminoacylation with biotinyl-Ile-oxazolone is 5.44; with biotinyl-Trp-oxazolone it was 7.92; in the data set with biotinyl-Leu-oxazolone, 11.8; in the data set on biotinyl-Phe-oxazolone, 62.7; in the data set on biotinyl-Val-oxazolone, 5.7; with biotinyl-Met-oxazolone it was 8.34.

With “AAGUUUGCUAACAGUCGCAAG [Fam3.1 aminoacylation ribozyme variant]”, the self-aminoacylation in the data set with biotinyl-Ile-oxazolone is 1.18; in the data set on biotinyl-Trp-oxazolone, 5.51; in the data set with biotinyl-Leu-oxazolone, 0.961; in the data set on biotinyl-Phe-oxazolone it was 21.1; with biotinyl-Val-oxazolone it was 1.06; with biotinyl-Met-oxazolone, 1.29.

As for “AAGUUUGCAAAUAGUCUCAAG [Fam3.1 aminoacylation ribozyme variant]”, the self-aminoacylation is 0.987 with biotinyl-Ile-oxazolone; 0.81 in the data set on biotinyl-Trp-oxazolone; 0.747 in the data set on biotinyl-Leu-oxazolone; 0.972 in the data set with biotinyl-Phe-oxazolone; 0.772 in the data set on biotinyl-Val-oxazolone; 1.12 in the data set on biotinyl-Met-oxazolone.

As for “AAGUUUGCCAAUAGACGCAAG [Fam3.1 aminoacylation ribozyme variant]”, the self-aminoacylation is 0.591 in the data set with biotinyl-Ile-oxazolone; 0.482 with biotinyl-Trp-oxazolone; 0.562 in the data set with biotinyl-Leu-oxazolone; 0.674 in the data set on biotinyl-Phe-oxazolone; 0.664 with biotinyl-Val-oxazolone; 0.625 in the data set with biotinyl-Met-oxazolone.

For “AAGGUUGCUAAUAGUCUCAAG [Fam3.1 aminoacylation ribozyme variant]”, the self-aminoacylation with biotinyl-Ile-oxazolone came to 1.13; in the data set with biotinyl-Trp-oxazolone it was 1.52; in the data set on biotinyl-Leu-oxazolone it was 0.944; in the data set on biotinyl-Phe-oxazolone, 2.46; in the data set with biotinyl-Val-oxazolone, 0.996; in the data set on biotinyl-Met-oxazolone, 1.05.

As for “CGACUUCAAACAAUUGGUCUG [Fam1A.1 aminoacylation ribozyme variant]”, the self-aminoacylation turned out to be 1.06 in the data set with biotinyl-Ile-oxazolone; 1.25 in the data set on biotinyl-Trp-oxazolone; 0.999 with biotinyl-Leu-oxazolone; 1.57 in the data set with biotinyl-Phe-oxazolone; 0.891 in the data set on biotinyl-Val-oxazolone; 0.91 with biotinyl-Met-oxazolone.

On to “CUACUUCAAUCAAUCGGUCGG [Fam1A.1 aminoacylation ribozyme variant]”, for which the self-aminoacylation was found to be 1.15 in the data set on biotinyl-Ile-oxazolone; 12.2 in the data set on biotinyl-Trp-oxazolone; 1.47 in the data set on biotinyl-Leu-oxazolone; 15.8 with biotinyl-Phe-oxazolone; 1.04 in the data set with biotinyl-Val-oxazolone; 1.39 with biotinyl-Met-oxazolone.
